These results are taken from patent US20260216366A1, “CONJUGATE AND USES THEREOF” (Full-Life Technologies UK Limited, priority 2022, published 2026).

Series [1] concerns FAP expressing HEK293-hFAP cells. Kind of series: In vivo SPECT imaging of 177Lu-labeled FAP conjugates. The arrangement: species or system female athymic nude mice. The conditions noted are these: FIG. 5, 30 MBq/mouse i.v., at different time points. As for the experimental part: In vivo biodistribution of FAP conjugates was analyzed by SPECT imaging via ^177Lu labeling. Briefly, the FAP conjugates were labeled by ^177Lu with a molar activity of 1 MBq/μg at 37° C. for 60 min and purified by size-exclusion chromatography, followed by analysis of radioactive purity through radio-TLC and radio-HPLC on the same day of labelling. The release criteria for radio-labelled sample was ≥90% radiochemical purity.
For the imaging study, female athymic nude mice (approximately 6-8 weeks old) were each inoculated with 5×10^6 FAP expressing HEK293-hFAP cells via subcutaneous injection into the shoulder. When the tumor volume reached to about 150 to 250 mm^3, the animal was injected with the labeled conjugate at a dose of 30 MBq/mouse by a single bolus intravenous injection in tail vein. Animals were then subject to whole-body static SPECT followed by CT at different time points under isoflurane anaesthesia.

Series [2] can be described thus: Pharmacokinetic study of FAP-linker conjugates (serum ELISA, NCA). The class given is in vivo, BALB/c mice. The conditions noted are these: for AUCall / Cl / T1/2 / Vd: BALB/c mice, intravenous, about 1 mg/kg, serum, over 48 hours. Here is the method:
he in vivo pharmacokinetic profile of the FAP-linker conjugates was analyzed. Briefly, BALB/c mice were administered with the conjugates by intravenous injection at a dose of about 1 mg/kg. Then, whole blood of the animal was collected at different time periods over 48 hours.
The whole blood was collected into a tube without anticoagulation and maintained at room temperature for more than 30 minutes, followed by centrifugated at approximately 5000 rpm at 4° C. for 5 minutes to obtain serum. Concentration of the conjugates in serum was then measured by ELISA using HRP-labeled goat anti-alpaca IgG VHH domain secondary antibody. The data was further analyzed using PK Solver software, and the […] (NCA) was used to evaluate the pharmacokinetic parameters, as shown in Table 8 and FIG. 3.
In general terms: In an ELISA, binding on a coated surface is turned into a signal by an enzyme label.

The nature of series [3]: Pharmacokinetic study of CLDN18.2-linker conjugates (serum ELISA, NCA). The class given is in vivo, BALB/c mice. The conditions noted are these: FIG. 2; CLDN18.2 conjugate of the named linker compared to the control group. As for the experimental part:
The in vivo pharmacokinetic profile of the CLDN18.2-linker conjugates was analyzed. Briefly, BALB/c mice were administered with the conjugates by intravenous injection at a dose of about 1 mg/kg. Then, whole blood of the animal was collected at different time points over 48 hours.
The whole blood was collected into a tube without anticoagulation and maintained at room temperature for more than 30 minutes, followed by centrifuge at approximately 5000 rpm at 4° C. for 5 minutes to obtain serum. Concentration of the conjugates in serum was then measured by ELISA using HRP-labeled goat anti-alpaca IgG VHH domain secondary antibody. The data was further analyzed using PK Solver software, and the […] (NCA) was used to evaluate the pharmacokinetic parameters, as shown in Table 7 and FIG. 2.

Another series relates to CLDN18.2 HEK293T cells. Kind of series: In vivo SPECT imaging of 111In-labeled CLDN18.2 conjugates. The conditions noted are these: FIG. 4, 10 MBq/mouse i.v., over 48 hours, compared to the control group. More on the design: species or system female athymic nude mice. As for the experimental part:
In vivo biodistribution of the CLDN18.2 conjugates was analyzed by SPECT imaging via ^111In labeling. Briefly, the CLDN18.2 conjugates were labeled by ^111In at 30° C. for 60 min and purification by NAP-5 column. followed by analysis of radioactive purity through radio-TLC and radio-HPLC on the same day of labelling. The release criteria for radio-labelled sample was ≥90% radiochemical purity.
For the imaging study, female athymic nude mice (approximately 6-8 weeks old) were each inoculated with 5×10^6 CLDN18.2 HEK293T cells via subcutaneous injection into the shoulder. When the tumor volume reached to about 200 to 300 mm^3, the animal was injected with the labeled conjugate at a dose of 10 MBq/mouse by a single bolus intravenous injection in tail vein. Animals were then subject to whole-body static SPECT followed by CT at different time points under isoflurane anaesthesia. […] In addition, the tumor/kidney ratio was increased around 5-10 folds compared to the control group.

For a further series, the target named is T1, human Claudin 18.2-VLP (human, UniProt P56856-2 1-261).
T1 construct: also called CLDN18.2
T1 sequence (looked up): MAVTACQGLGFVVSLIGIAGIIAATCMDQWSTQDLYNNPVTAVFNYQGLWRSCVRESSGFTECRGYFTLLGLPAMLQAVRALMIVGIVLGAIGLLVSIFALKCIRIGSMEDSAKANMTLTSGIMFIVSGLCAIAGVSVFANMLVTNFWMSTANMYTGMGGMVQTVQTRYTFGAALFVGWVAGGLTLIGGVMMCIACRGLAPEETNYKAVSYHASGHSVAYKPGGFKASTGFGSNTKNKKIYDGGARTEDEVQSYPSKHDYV
Kind of series: ELISA, plate coated with human Claudin 18.2-VLP, HRP anti-sdAb detection. Here is the method: (§1) Binding affinities of the prepared conjugates with tumor antigen was evaluated by ELISA. […] On the next day, the plate was washed by 0.05% PBST and blocked by 10% StartingBlock buffer (Thermo, #37538) at room temperature for 1 hr. Then, 100 μL of serial diluted conjugate samples in 1% StartingBlock buffer was added to the plate. The plate was further incubated at room temperature for 2 hrs under shaking at 100 rpm and washed by 0.05% PBST. Then 100 μL 0.4 μg/mL HRP-conjugated anti-sdAb secondary antibody (Jackson, #128-035-232) was added and subject to 1 hr incubation at room temperature under shaking at 100 rpm. The plate was then washed by 0.05% PBST and developed using TMB solution (KPL, #5120-00820).

For the next series, the target named is T2, human FAP-hFc (human, UniProt Q12884 26-760).
T2 construct: Coated on the ELISA plate as human FAP-hFc; also called FAP-alpha; not shown: human Fc (hFc)
T2 sequence (looked up): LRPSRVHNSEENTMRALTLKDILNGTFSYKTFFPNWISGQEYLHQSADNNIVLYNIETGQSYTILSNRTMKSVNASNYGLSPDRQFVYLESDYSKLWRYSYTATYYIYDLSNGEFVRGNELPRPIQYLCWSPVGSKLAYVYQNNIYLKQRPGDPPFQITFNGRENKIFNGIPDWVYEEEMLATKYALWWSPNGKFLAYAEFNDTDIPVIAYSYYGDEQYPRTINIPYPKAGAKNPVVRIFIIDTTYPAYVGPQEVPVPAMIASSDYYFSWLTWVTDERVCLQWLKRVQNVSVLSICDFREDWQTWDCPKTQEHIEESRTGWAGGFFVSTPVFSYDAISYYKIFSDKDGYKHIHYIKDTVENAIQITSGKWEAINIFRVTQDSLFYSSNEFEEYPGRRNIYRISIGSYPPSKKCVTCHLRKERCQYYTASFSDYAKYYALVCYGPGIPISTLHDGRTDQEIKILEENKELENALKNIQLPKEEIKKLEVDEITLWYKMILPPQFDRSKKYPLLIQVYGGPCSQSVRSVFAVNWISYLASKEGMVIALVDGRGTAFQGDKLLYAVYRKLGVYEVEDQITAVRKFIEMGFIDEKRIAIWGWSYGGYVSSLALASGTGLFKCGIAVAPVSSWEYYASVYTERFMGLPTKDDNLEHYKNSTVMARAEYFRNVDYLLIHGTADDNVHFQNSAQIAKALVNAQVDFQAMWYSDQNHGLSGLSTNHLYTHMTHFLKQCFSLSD
Kind of series: ELISA, plate coated with human FAP-hFc, HRP anti-sdAb detection. As for the experimental part:
as §1

On to `O=C(O)CCC(NC(=O)C(CCCCNC(=O)CCCc1ccc(I)cc1)NC(=O)CNC(=O)CCC(C(=O)O)N1CCN(CC(=O)O)CCN(CC(=O)O)CCN(CC(=O)O)CC1)C(=O)NCc1ccc(N=C=S)cc1` (stereo not drawn) [L007], for which the “retention of the FAP conjugates in tumor” value in series [1] was “increasing retention”. The “blood circulation of the FAP conjugates” value in series [2] (FIG. 3, FAP conjugate of the named linker compared to the control group) is “significantly prolonged blood circulation”. In addition, the “blood circulation of the CLDN18.2 conjugates” value in series [3] was “significantly prolonged blood circulation”. For the same molecule, the “retention of the CLDN18.2 conjugates in tumor” value with CLDN18.2 HEK293T cells was “significantly increased retention”.

With `O=C(O)CN1CCN(CC(=O)O)CCN(C(CCC(=O)NCC(=O)NC(CCCCNC(=O)CCCc2ccc(I)cc2)C(=O)NCc2ccc(N=C=S)cc2)C(=O)O)CCN(CC(=O)O)CC1` (stereo not drawn) [L009], the “blood circulation of the CLDN18.2 conjugates” value in series [3] was “significantly prolonged blood circulation”. For the same molecule, in the series on CLDN18.2 HEK293T cells, the “retention of the CLDN18.2 conjugates in tumor” value is reported as “significantly increased retention”.

B1: CLDN18.2-DOTAGA (VHH)
VHH: EVQLVESGGGLVQPGGSLRLSCAASGSFFRIVAMGWYRQAPGSQRELVATITRGGSTYYADSVKGRFTISRDNAKNTLYLQMNSLRAEDTAVYYCNVRVEVPFMQPNDYWGQGTLVTVSS
modifications: DOTAGA chelator conjugated to the sdAb, residue not stated; DOL 1.23
notes: also called CLDN18.2 sdAb conjugated with DOTAGA
The EC50 is the midpoint of the concentration-response curve. A higher EC50 goes with a need for much substance. B1 showed an EC50 in the series with human Claudin 18.2-VLP of 0.84 nM.

B2: CLDN18.2-L001 (VHH)
VHH: B1 VHH
modifications: functional linker L001 conjugated to the sdAb, residue not stated; DOL 1.13
notes: also called CLDN18.2 sdAb-linker L001 conjugate
As for B2, in the series with human Claudin 18.2-VLP, the EC50 amounted to 1.75 nM.

B3: CLDN18.2-L004 (VHH)
VHH: B1 VHH
modifications: functional linker L004 conjugated to the sdAb, residue not stated; DOL 1.37
notes: also called CLDN18.2 sdAb-linker L004 conjugate
With B3, it took 3.47 nM to reach a half-maximal effect in the series with human Claudin 18.2-VLP (EC50).

B4: CLDN18.2-L009 (VHH)
VHH: B1 VHH
modifications: functional linker L009 conjugated to the sdAb, residue not stated; DOL 1.77
notes: also called CLDN18.2 sdAb-linker L009 conjugate; linker 009 conjugate
In the series with human Claudin 18.2-VLP, B4 came in with a concentration for a half-maximal effect (EC50) of 3.11 nM.

B5: CLDN18.2-L007 (VHH)
VHH: B1 VHH
modifications: functional linker L007 conjugated to the sdAb, residue not stated; DOL 1.69
notes: also called CLDN18.2 sdAb-linker L007 conjugate; linker 007 conjugate
For B5, the midpoint of the response in the series with human Claudin 18.2-VLP, the EC50, lay at 7.41 nM.

B6: CLDN18.2-L010 (VHH)
VHH: B1 VHH
modifications: functional linker L010 conjugated to the sdAb, residue not stated; DOL 1.54
notes: also called CLDN18.2 sdAb-linker L010 conjugate; linker 010 conjugate
B6 came in with an EC50 with human Claudin 18.2-VLP of 2.31 nM.

B7: CLDN18.2-L002 (VHH)
VHH: B1 VHH
modifications: functional linker L002 conjugated to the sdAb, residue not stated; DOL 1.18
notes: also called CLDN18.2 sdAb-linker L002 conjugate
Regarding B7, the EC50 with human Claudin 18.2-VLP came out at 2.18 nM.

B8: CLDN18.2-L012 (VHH)
VHH: B1 VHH
modifications: functional linker L012 conjugated to the sdAb, residue not stated; DOL 1.65
notes: also called CLDN18.2 sdAb-linker L012 conjugate
Consider B8, for which, in the series with human Claudin 18.2-VLP, the EC50 stood at 1.93 nM.

B9: FAP-L007 (VHH)
VHH: QVQLLESGGGLVQPGGSLRLSCAASGFGFGNSLMSWVRRAPGKGLEWVSTIYPRGSFTDYADSVKGRFTISRDNSRNTLYLQMNSLRAEDTAVYYCATGWGRSSDYDPPGQGTLVTVSS
modifications: functional linker L007 conjugated to the sdAb, residue not stated; DOL 0.68
notes: also called FAP sdAb-linker L007 conjugate
B9 yielded an EC50 with human FAP-hFc of 0.0603 nM.

B10: FAP-DOTAGA: FAP sdAb (SEQ ID NO. 5) conjugated with DOTAGA, used as control for chelating imaging radioisotope (conjugate)
VHH: B9 VHH
modifications: DOTAGA chelator conjugated
A word on the Vd: it is the apparent volume that relates the amount in the body to the concentration in plasma or blood. As for B10, in series [2], the AUCall was 1560 ± 88 ng·h/mL, the Cl came to 10.7 ± 0.633 mL/min/kg, the T1/2 is 0.486 ± 0.002 h and the Vd worked out at 0.315 ± 0.020 L/kg.

B11: FAP-DOTAGA (VHH)
VHH: B9 VHH
modifications: DOTAGA chelator conjugated to the sdAb, residue not stated; DOL 0.42
notes: also called FAP sdAb conjugated with DOTAGA (control)
B11: in the series with human FAP-hFc, the EC50 amounted to 0.0553 nM.

B12: FAP-L007: FAP sdAb (SEQ ID NO. 5) conjugated with functional linker L007 (conjugate)
VHH: B9 VHH
modifications: functional linker L007 conjugated
In series [2], B12 showed an AUCall of 45700 ± 3230 ng·h/mL, a Cl of 0.367 ± 0.033 mL/min/kg, a T1/2 of 8.10 ± 0.114 h and a Vd of 0.206 ± 0.017 L/kg.
